Reference: patent US20090214534A1

Experiments:
[1] = molecular target: interleukin-1 type 1 receptor (UniProt P14778); assay: cell-based or functional assay
[2] = molecular target: human serum albumin (human) (UniProt P02768); assay: sandwich ELISA, HSA-coated plate, control antibody at 1 µM, anti-FITC detection

Chain of UniProt P14778 (P14778 18-569 limits assumed): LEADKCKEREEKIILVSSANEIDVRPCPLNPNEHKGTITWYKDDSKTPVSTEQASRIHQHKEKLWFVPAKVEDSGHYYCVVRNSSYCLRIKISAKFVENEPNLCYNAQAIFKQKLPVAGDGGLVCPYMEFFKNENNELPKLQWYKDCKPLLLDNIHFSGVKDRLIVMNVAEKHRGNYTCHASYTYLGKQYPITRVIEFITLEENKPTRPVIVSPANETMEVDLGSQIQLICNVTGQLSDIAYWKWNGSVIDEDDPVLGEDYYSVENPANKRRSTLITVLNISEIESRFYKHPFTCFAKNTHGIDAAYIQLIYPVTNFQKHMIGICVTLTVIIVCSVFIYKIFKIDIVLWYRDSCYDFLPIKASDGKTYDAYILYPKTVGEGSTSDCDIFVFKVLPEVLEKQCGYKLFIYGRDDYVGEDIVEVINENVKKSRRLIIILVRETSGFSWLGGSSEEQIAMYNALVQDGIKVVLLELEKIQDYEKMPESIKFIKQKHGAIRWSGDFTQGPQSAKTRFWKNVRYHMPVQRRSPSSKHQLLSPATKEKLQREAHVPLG

Substance | ND50 (neutralizing dose 50) of IL-1-induced IL-8 secretion by MRC-5 cells [1] [nM] | OD600 [2] [OD600]
recombinant human IL-1ra (from UniProt P18510 26-177) (ligand) | 0.5 | –
FITC coupled antibody (negative control) | – | 0.049
